Biological target: glycosylated Aeromonas caviae polar flagellin FlaA, FlaA (+pse) (Aeromonas caviae (endogenous in A. caviae Sch3N and its flaB mutant AAR27))
Test: far-Western, overlay or dot blot; glycosylated and unglycosylated FlaA titrated across an SDS-PAGE gel, transferred to nitrocellulose, probed with a constant concentration of GST-FlaJ; αGST-HRP, densitometry, triplicate blots

B1: GST-tagged Aeromonas caviae flagellin-specific chaperone FlaJ (GST-FlaJ) (natural protein)
chain: MYKRNIKAYTAGNLAADLATADPHRVIQLMMQGCLERLAQAKGAIERNDMEAKSIAISKAQGLLHGLQDALDMSQGRMAEDLYGLYAYMDERVWDASLNRDTEPLEEVMTLMLTIKSGWDQLPETEKNQGYQMRQQLGEL
Which fold more GST-FlaJ bound than to equimolar unglycosylated FlaA does the source give for B1 here?
The fold more GST-FlaJ bound than to equimolar unglycosylated FlaA was 5 fold.
